# Results published in patent publication US20230064978A1, “CYCLIC PEPTIDE RECEPTOR LANTHIONINE SYNTHETASE C-LIKE PROTEIN (LANCL) AND USES THEREOF” (LATERAL IP PTY LTD, priority 2019, published 2023).
# Bridges are numbered along the chain shown (N, C = ends). Where no end group is shown, it is not given here.
# Biological target: Recombinant human 6His-LaNCL1 protein (Homo sapiens, UniProt O43813)
# Assay: In-vitro photolabelling of 6His-LanCL1 and LC-MS/MS to identify binding site
# Description: Recombinant human 6His-LaNCL1 protein (2 μM, 1 nmol, 53 μg) in 530 μL PBS was pre-incubated with 50 μM of LAT8881 or DMSO for 10 min and then treated with 25 μM LAT9991-PAL for another 30 min at RT in Nunc™ MicroWell™ 96-well plates (Thermo Fisher Scientific cat #167008) (final reaction volume, 530 μL). The samples were UV-irradiated (365 nm) for 20 min at 4° C. After UV-irradiation, the samples were split in two different samples containing 3 μg or 50 μg of protein.
# Protein samples (3 μg protein) were adjusted to 1% SDS and 10 mM DTT. After incubation for 1 h at 56° C., protein samples were treated with 30 mM iodoacetamide for 45 min at RT in the dark. Dry acetone (9 volumes) prechilled to −20° C. was added and the cloudy mixture was vortexed thoroughly and incubated at −20° C. overnight. After centrifugation (15,000×g for 10 min at 4° C.), the supernatants were poured off and the remaining pellets washed with −20° C. acetone. […] After removing the supernatants, the protein pellets were air-dried and dissolved in laemmli buffer, heated at 60° C. for 20 minutes and analyzed by in gel fluorescence scanning […]
# Peptides were analyzed by nanoLC-MS/MS with the Ultimate 3000 RSLC (Thermo Fisher Scientific) coupled online to a Q-Exactive Plus mass spectrometer with a NanoFlex source. […]
# Chain of Recombinant human 6His-LaNCL1 protein (O43813 with tags, fused parts or gaps): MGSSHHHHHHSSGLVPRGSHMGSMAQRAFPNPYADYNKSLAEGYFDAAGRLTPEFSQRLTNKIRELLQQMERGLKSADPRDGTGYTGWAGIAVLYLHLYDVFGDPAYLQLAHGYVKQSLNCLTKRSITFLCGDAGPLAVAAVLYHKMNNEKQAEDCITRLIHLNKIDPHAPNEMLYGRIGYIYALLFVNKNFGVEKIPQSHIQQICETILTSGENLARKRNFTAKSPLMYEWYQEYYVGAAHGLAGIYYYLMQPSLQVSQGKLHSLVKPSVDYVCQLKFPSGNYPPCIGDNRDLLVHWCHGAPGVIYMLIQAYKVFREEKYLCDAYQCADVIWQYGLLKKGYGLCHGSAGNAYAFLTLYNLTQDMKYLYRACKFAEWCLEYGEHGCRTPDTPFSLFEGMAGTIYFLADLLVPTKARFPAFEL
substance,measurement,setting,value
LAT9991-PAL: cyclic peptide of SEQ ID NO:12 (LAT9991) conjugated to the PAL (Photo-Activated Labelling) grouping (CRSVEGSCG; disulfide 1-8 (inferred); also: PAL group on N-terminal Cys-Arg part),Modified LANCL1 peptide sequence differentially detected,"25 μM probe, dependent peptide MS analysis",IDPHAPNEM(ox)LYGR
same,Most likely site for localization of the probe adduct on LANCL1,amino acid residues 171-174 of human LANCL1 (SEQ ID NO:56),PNEM
